Entries after “also recorded” stand apart in the source; their conditions may differ.
Columns and labels:
2-O sulfatase [1] = assay: effect of ionic strength, metal ions, EDTA, buffers and cysteine-reactive agents on 2-O sulfatase activity; format: biochemical, F. heparinum; conditions: for effect of additive on enzyme activity: EDTA up to 1 mM, CaCl2, MgCl2, MnCl2 up to 10 mM, DTNB, DTT, 50 mM phosphate buffer pH 6.5
Procedure: For pilot experiments measuring the relative effect of ionic strength on 2-O sulfatase activity, the NaCl concentration was varied from 0.05 to 1 M in 50 mM MES buffer (pH 6.5) that included 500 μM of the disulfated disaccharide ΔU2SHNS,6S and 50 nM enzyme. The effect of pH on sulfatase activity was assessed as a function of catalytic efficiency by measuring kinetic parameters in the following two overlapping pH buffer systems ranging from 5.0 to 8.0: 50 mM MES at pH 5.0, 5.5, 6.5, and 7.0; 50 mM MOPS at pH 6.5, 7.0, 7.5 and 8.0. Assays included 25 nM enzyme, 50 mM NaCl and varying concentrations of the disulfated disaccharide substrate ΔU2SHNS. Km and kcat values were extrapolated from Vo vs. [S] curves fit to the Michaelis-Menten equation by a non-linear least squares regression and the relative kcat/Km ratios plotted as a function of buffer pH. […] Relative activities were measured at a single saturating substrate concentration (4 mM) using ΔU2SHNS.
We also examined 2-O sulfatase activity relative to ionic composition.

2-O sulfatase [2] = assay: desulfation of 2-O sulfated chondroitin disaccharides under extended and exhaustive conditions; format: biochemical, F. heparinum; conditions: 4× higher enzyme concentration, 20 minute period
Procedure: Substrate specificity and kinetics experiments using different disaccharide substrates—For substrate specificity experiments, the following heparin disaccharide substrates were used: ΔU2SHNAc, ΔU2SHNAc,6S, ΔU2SHNS, and ΔU2SHNS,6S. In addition, the chondroitin disaccharides ΔU2SGalNAc,4S and ΔU2SGalNAc,6S were also studied. Disaccharide concentrations for each respective substrate were varied from 0.1 mM to 4 mM. Initial rates (Vo) were extrapolated from linear activities representing <20% substrate turnover and fit to pseudo first-order kinetics. Standard reactions included 50 mM imidazole, pH 6.5, 50 mM NaCl, 500 μM disaccharide, and 25 nM of enzyme (2-O ΔN^1-24) in a 20 μL reaction volume. […] Desulfation at the 2-OH position of the disaccharide was measured by capillary electrophoresis. […] Activity was measured as moles of desulfated product formed and was calculated from the measured area of the product peak based on molar conversion factors empirically determined from standard curves. […] Each unsaturated disaccharide peak was detected by UV absorption at 232 nm. All the substrate saturation kinetics were measured under Michaelis-Menten conditions.
To determine whether either or both of these 2-O sulfated chondroitin disaccharides could be quantitatively desulfated under exhaustive conditions, we carried out an 18 hour incubation at 30° C. that included 5 mM of substrate and 5 μM enzyme.

[3] = biological target: T1, 2-O sulfatase (2-O ΔN^1-24) (Pedobacter heparinus, UniProt C6Y1N2); assay: exolytic desulfation of oligosaccharides by 2-O sulfatase (CE compositional analysis and MALDI-MS); format: biochemical, F. heparinum
Procedure: Heparin compositional analyses by capillary electrophoresis and MALDI-MS—Approximately 10 μg of the AT-10 oligosaccharide were incubated with 100 picomoles of 2-O ΔN^1-24 in a 40 μL reaction volume at 30° C. 15 μL aliquots were removed at 4 hours and 17 hours and heat inactivated at 95° C. The oligosaccharide reaction products (along with 15 μL of a minus sulfatase control) were subjected to an exhaustive heparinase I and III digestion prior to CE-based compositional analysis. Desulfation of the decasaccharide was assayed in parallel by MALDI-MS using established methods (Rhomberg, A. J., Ernst, S., Sasisekharan, R., and Biemann, K. (1998) Proc Natl Acad Sci USA 95(8), 4176-81.).
Exolytic Action of the 2-O sulfatase—We addressed this important question using as a substrate the purified heparin-derived AT-10 decasaccharide ΔU2SHNS,6SI2SHNS,6SI2SHNS,6SIHNAc,6SGHNS,3S,6S. […] The substrate was first exhaustively treated with the 2-O sulfatase. The 2-O desulfated decasaccharide was then subjected to an exhaustive heparinase treatment.

[4] = biological target: T1, 2-O sulfatase (2-O ΔN^1-24); assay: 2-O sulfatase assay and disaccharide substrate kinetics by capillary electrophoresis; format: biochemical, F. heparinum
Procedure: (§1) 2-O sulfatase assay and determination of biochemical reaction conditions—2-O sulfatase activity was measured using the unsaturated heparin trisulfated disaccharide ΔU2SHNS,6S or the disulfated disaccharide ΔU2SHNS as well as the disulfated disaccharide ΔUHNS,6S lacking a sulfate at the 2-OH position. Standard reactions included 50 mM imidazole, pH 6.5, 50 mM NaCl, 500 μM disaccharide, and 25 nM of enzyme (2-O ΔN^1-24) in a 20 μL reaction volume. The reaction was carried out for 30 seconds at 30° C. Prior to its addition, the enzyme was serially diluted to 250 nM in ice cold 1X imidazole buffer. The assay was initiated by the addition of 2 μL of this 10 X enzyme stock to 18 μL of reaction mixture. The enzyme was inactivated by heating at 95° C. 11 for five minutes in pre-heated 0.5 mL eppendorf tubes. Desulfation at the 2-OH position of the disaccharide was measured by capillary electrophoresis. Resolution of substrate and product were achieved under standard conditions described for HSGAG compositional analyses (Rhomberg, A. J., Ernst, S., Sasisekharan, R., and Biemann, K. (1998) Proc Natl Acad Sci USA 95(8), 4176-81). […] For the detection of mono- and di-sulfated disaccharide products, total electrophoresis time was 20 minutes. Each unsaturated disaccharide peak was detected by UV absorption at 232 nm.
(§2) Substrate specificity and kinetics experiments using different disaccharide substrates—For substrate specificity experiments, the following heparin disaccharide substrates were used: ΔU2SHNAc, ΔU2SHNAc,6S, ΔU2SHNS, and ΔU2SHNS,6S. In addition, the chondroitin disaccharides ΔU2SGalNAc,4S and ΔU2SGalNAc,6S were also studied. Disaccharide concentrations for each respective substrate were varied from 0.1 mM to 4 mM. Initial rates (Vo) were extrapolated from linear activities representing <20% substrate turnover and fit to pseudo first-order kinetics. Standard reactions included 50 mM imidazole, pH 6.5, 50 mM NaCl, 500 μM disaccharide, and 25 nM of enzyme (2-O ΔN^1-24) in a 20 μL reaction volume. The reaction was carried out for 30 seconds at 30° C.

[5] = biochemical reaction conditions (pH, ionic strength, temperature) for recombinant 2-O sulfatase; conditions: for activity at outlying pH values of 5 and 8: pH 5.0 and 8.0
Procedure: FIG. 6 provides the in vitro biochemical reaction conditions for the recombinant 2-O sulfatase. Panel (A) illustrates the effect of pH. Sulfatase catalytic efficiency (kcat/Km) was measured as a function of varying pH from 5 to 8 using two overlapping buffers: 50 mM MES (solid circles) and 50 mM MOPS (open circles). Inset: Relative effect of three different assay buffers (each at pH 6.5) on optimal enzyme activity. 1.50 mM MES; 2.50 mM imidazole; 3.50 mM sodium phosphate. Panel (B) illustrates the effect of ionic strength. Shown here is % activity normalized to 50 mM NaCl. Panel (C) illustrates the effect of reaction temperature. Data is normalized to 30° C. activity (100%). The unsaturated disaccharide ΔU2SHNS was used in all three experiments.
For pilot experiments measuring the relative effect of ionic strength on 2-O sulfatase activity, the NaCl concentration was varied from 0.05 to 1 M in 50 mM MES buffer (pH 6.5) that included 500 μM of the disulfated disaccharide ΔU2SHNS,6S and 50 nM enzyme. The effect of pH on sulfatase activity was assessed as a function of catalytic efficiency by measuring kinetic parameters in the following two overlapping pH buffer systems ranging from 5.0 to 8.0: 50 mM MES at pH 5.0, 5.5, 6.5, and 7.0; 50 mM MOPS at pH 6.5, 7.0, 7.5 and 8.0. Assays included 25 nM enzyme, 50 mM NaCl and varying concentrations of the disulfated disaccharide substrate ΔU2SHNS. Km and kcat values were extrapolated from Vo vs. [S] curves fit to the Michaelis-Menten equation by a non-linear least squares regression and the relative kcat/Km ratios plotted as a function of buffer pH. Based on this profile, relative enzyme activity was also measured in four different buffers (MES, imidazole, ADA, and sodium phosphate) each present as a 50 mM concentration at pH 6.5. Relative activities were measured at a single saturating substrate concentration (4 mM) using ΔU2SHNS.
These parameters included pH, temperature, ionic strength, and possible divalent metal ion dependency.
37° C. was the default temperature at which all of the preliminary biochemical experiments were conducted. We measured both relative enzyme activity and stability as a function of varying reaction temperature (FIG. 6, Paenl (C)). The 2-O sulfatase was active over a fairly broad temperature range (25° C. to 37° C.), with optimal activity occurring at 30° C. Enzyme activity was compromised at 42° C. Enzyme stability at this temperature was likewise affected as assessed in pre-incubation experiments conducted at varying temperatures (30° C.→42° C.) prior to measuring 2-O sulfatase activity at 30° C.

[6] = −85° C., 10% glycerol
[7] = substrate: O=C(O)C1=C[C@H](O)[C@@H](OS(=O)(=O)O)[C@H](O[C@H]2[C@H](O)[C@@H](NS(=O)(=O)O)C(O)O[C@@H]2COS(=O)(=O)O)O1; assay: 2-O sulfatase assay and disaccharide substrate kinetics by capillary electrophoresis; format: biochemical, F. heparinum; conditions: other: 25 nM 2-O ΔN^1-24, 50 mM imidazole pH 6.5, 50 mM NaCl, 30° C., chondroitin disaccharide approximated from double reciprocal plots
Procedure: as §1, §2

[8] = substrate: O=C(O)C1=C[C@H](O)[C@@H](OS(=O)(=O)O)[C@H](O[C@H]2[C@H](O)[C@@H](NS(=O)(=O)O)C(O)O[C@@H]2CO)O1; assay: as above; format: biochemical, F. heparinum; conditions: other: 25 nM 2-O ΔN^1-24, 50 mM imidazole pH 6.5, 50 mM NaCl, 30° C., chondroitin disaccharide approximated from double reciprocal plots
Procedure: as §1, §2

[9] = substrate: CC(=O)N[C@H]1C(O)O[C@H](CO)[C@@H](O[C@@H]2OC(C(=O)O)=C[C@H](O)[C@H]2OS(=O)(=O)O)[C@@H]1O; assay: as above; format: biochemical, F. heparinum; conditions: other: 25 nM 2-O ΔN^1-24, 50 mM imidazole pH 6.5, 50 mM NaCl, 30° C., chondroitin disaccharide approximated from double reciprocal plots
Procedure: as §1, §2

[10] = substrate: CC(=O)N[C@H]1C(O)O[C@H](COS(=O)(=O)O)[C@@H](O[C@@H]2OC(C(=O)O)=C[C@H](O)[C@H]2OS(=O)(=O)O)[C@@H]1O; assay: as above; format: biochemical, F. heparinum; conditions: other: 25 nM 2-O ΔN^1-24, 50 mM imidazole pH 6.5, 50 mM NaCl, 30° C., chondroitin disaccharide approximated from double reciprocal plots
Procedure: as §1, §2

In the case of `[Cl-].[Cl-].[Mg+2]` [MgCl2], the “effect of additive on enzyme activity” value (2-O sulfatase [1]) is reported as “no substantive effect”.

In the case of `[Ca+2].[Cl-].[Cl-]` [CaCl2], the “effect of additive on enzyme activity” value (2-O sulfatase [1]) is reported as “no substantive effect”.

For `CC(=O)N[C@H]1C(O)O[C@H](CO)[C@H](OS(=O)(=O)O)[C@@H]1O[C@@H]1OC(C(=O)O)=C[C@H](O)[C@H]1OS(=O)(=O)O` (some centres unmarked) [ΔU2SGalNAc,4S], the substrate desulfated (2-O sulfatase [2]) was “less than 10%”.

With `CC(=O)NC1C(OC2C(C(=O)O)OC(OC3C(COS(=O)(=O)O)OC(O)C(NS(=O)(=O)O)C3OS(=O)(=O)O)C(O)C2O)OC(COS(=O)(=O)O)C(OC2OC(C(=O)O)C(OC3OC(COS(=O)(=O)O)C(OC4OC(C(=O)O)C(OC5OC(COS(=O)(=O)O)C(OC6OC(C(=O)O)C(OC7OC(COS(=O)(=O)O)C(OC8OC(C(=O)O)=CC(O)C8OS(=O)(=O)O)C(O)C7NS(=O)(=O)O)C(O)C6OS(=O)(=O)O)C(O)C5NS(=O)(=O)O)C(O)C4OS(=O)(=O)O)C(O)C3NS(=O)(=O)O)C(O)C2O)C1O` [AT-10, ΔU2SHNS,6SI2SHNS,6SI2SHNS,6SIHNAc,6SGHNS,3S,6S] the “disappearance of disaccharide ΔU2SHNS,6S in compositional analysis” value ([3]; 2-O sulfatase then exhaustive heparinase treatment, CE) was “by only one-third” and the “sulfates lost after exhaustive 2-O sulfatase treatment (mass spectrometry)” value ([3]; MALDI-MS) was “Loss of a single sulfate”.

For `O=C(O)c1cc(SSc2ccc([N+](=O)[O-])c(C(=O)O)c2)ccc1[N+](=O)[O-]` [DTNB], the “effect of additive on enzyme activity” value (2-O sulfatase [1]) was “not inhibited”.

In the case of `O=C(O)CN(CCN(CC(=O)O)CC(=O)O)CC(=O)O` [EDTA], the “effect of additive on enzyme activity” value (2-O sulfatase [1]) is reported as “largely unaffected” and the inhibition of activity (2-O sulfatase [1]; preincubation of enzyme with 5 mM EDTA, trisulfated disaccharide substrate) is reported as “approximately 10%”.

In the case of `[Cl][Mn][Cl]` [MnCl2], the “effect of additive on enzyme activity” value (2-O sulfatase [1]) is reported as “no substantive effect”.

With `O[C@@H](CS)[C@@H](O)CS` [DTT] the “effect of additive on enzyme activity” value (2-O sulfatase [1]) was “not inhibited”.

With `O=C(O)C1=C[C@H](O)[C@@H](OS(=O)(=O)O)[C@H](O[C@H]2[C@H](O)[C@@H](NS(=O)(=O)O)C(O)O[C@@H]2COS(=O)(=O)O)O1` (some centres unmarked) [ΔU2SHNS,6S] the “position specificity of desulfation by the recombinant sulfatase” value ([4]; ΔU2SHNS,6S versus ΔUHNS,6S, CE) was “only hydrolyzed a single sulfate, namely, the one found at the 2-OH position”.

For `CC(=O)N[C@H]1C(O)O[C@H](COS(=O)(=O)O)[C@H](O)[C@@H]1O[C@@H]1OC(C(=O)O)=C[C@H](O)[C@H]1OS(=O)(=O)O` (some centres unmarked) [ΔU2SGalNac.6S], the substrate desulfated (2-O sulfatase [2]) was “approximately 40%”, the Km ([4]; 25 nM 2-O ΔN^1-24, 50 mM imidazole pH 6.5, 50 mM NaCl, 30° C., chondroitin disaccharide approximated from double reciprocal plots) was greater than 10000 µM and the kcat ([4]; 25 nM 2-O ΔN^1-24, 50 mM imidazole pH 6.5, 50 mM NaCl, 30° C., substrate 0.1-4 mM, chondroitin disaccharide approximated from double reciprocal plots) was less than 100 s⁻¹. The “hydrolysis under the standard kinetic conditions” value ([4]; same kinetic conditions as heparin disaccharides) was “albeit neglibly, hydrolyzed; also recorded: only neglibly hydrolyzed”.

B1: 2-O sulfatase: recombinant F. heparinum 2-O sulfatase expressed in E. coli; experiments used the truncated enzyme with the histidine tag cleaved (protein, listed as Flavobacterium heparinum)
chain: MKMYKSKGWLIAMLILAGFGDAGAQTSKVAASRPNIIIIMTDQQTADAMSNAGNKDLHTPAMDVLAANGTRFTRAYCAQPLCTPSRSAIFSGKMPHETGFTGNTPEKDGQWPDSVLMMGKIFKAGGYKTGYVGKWHLPVPVTKVAQHGFETIENTGMGDYTDAVTPSQCANFNKKNKDNPFLLVASFLNPHDICEWARGDNLKMDVLDAAPDTAFCPKLPANWPIPAFEPAIVREQQKVNPRTYPSVGWNESQWRKYRWAYNRLVEKVDNYMAMVLGSLKKYGIEDNTIIIFTSDHGDGYAAHEWNQKQILYEEAARIPFIISKIGQWKARTDDQLVCNGIDIIPTICGFAGIAKPVGLKGLDLSKRIANPSVKLRDTLVIETDFADNELLLGIKGRAVITKDFKYIVYDKGEIREQLFDLEKDAGEMDNLAVKPAYKKKLNEMRAYLKLWCKQHQDSFYALKK
With B1 the pH activity range ([5]; 50 mM MES / MOPS, pH 5 to 8) was 6.0-7.0, the “pH optimum of activity (catalytic efficiency)” value ([5]; 50 mM MES / MOPS, pH 5 to 8) was 6.5 and the “enzyme activity at 42° C.” value ([5]; 42° C.) was “compromised”. The “NaCl concentration of optimal activity” value ([5]; NaCl titration) was “approximately 50 mM”, the “activity at outlying pH values of 5 and 8” value [5] was “essentially no activity” and the “activity at outlying pH values of 5 and 8” value ([5]; listed as flavobacterial sulfatase) was “essentially inactive”. For the same molecule, the “temperature of optimal activity” value ([5]; varying reaction temperature) was 30 °C and the “activity after long-term storage, freezing and thawing” value [6] was “without any subsequent loss of activity”.

B2: 2-O sulfatase (2-O ΔN^1-24) (Pedobacter heparinus DSM 2366) (protein)
chain: QTSKVAASRPNIIIIMTDQQTADAMSNAGNKDLHTPAMDVLAANGTRFTRAYCAQPLCTPSRSAIFSGKMPHETGFTGNTPEKDGQWPDSVLMMGKIFKAGGYKTGYVGKWHLPVPVTKVAQHGFETIENTGMGDYTDAVTPSQCANFIKKNKDNPFLLVASFLNPHDICEWARGDNLKMDVLDAAPDTAFCPKLPANWPIPAFEPAIVREQQKVNPRTYPSVGWNESQWRKYRWAYNRLVEKVDNYMAMVLGSLKKYGIEDNTIIIFTSDHGDGYAAHEWNQKQILYEEAARIPFIISKIGQWKARTDDQLVCNGIDIIPTICGFAGIAKPVGLKGLDLSKRIANPSVKLRDTLVIETDFADNELLLGIKGRAVITKDFKYIVYDKGEIREQLFDLEKDAGEMDNLAVKPAYKKKLNEMRAYLKLWCKQHQDSFYALKK
For B2, the Km [7] was 87 µM, the kcat [7] was 814 s⁻¹ and the kcat/Km [7] was 9.36e+06 M⁻¹ s⁻¹. It also gave a Km [8] of 1060 µM, a kcat [8] of 911 s⁻¹ and a kcat/Km [8] of 859000 M⁻¹ s⁻¹. The Km [9] was 4660 µM, the kcat [9] was 673 s⁻¹ and the kcat/Km [9] was 144000 M⁻¹ s⁻¹. The Km [10] was 515 µM, the kcat [10] was 1670 s⁻¹ and the kcat/Km [10] was 3.25e+06 M⁻¹ s⁻¹.

From patent US7429474B2, “2-O sulfatase compositions and methods of analyzing therewith” (Massachusetts Institute of Technology, priority 2003, dated 2008)
